Laboratory results taken from PMC3770571.

Tests used:
[1] = target: endogenous LANA of KSHV infected PEL cells (KSHV (HHV8) (endogenous in BCBL1, JSC1, BC3)) (UniProt Q9QR71); experiment: co-IP; lysate of 30 million BCBL1 cells treated with 2 U micrococcal nuclease (mononucleosomes), anti-LANA IP
[2] = target: endogenous LANA of KSHV infected PEL cells (KSHV (HHV8) (endogenous in BCBL1, JSC1, BC3)) (UniProt Q9QR71); experiment: co-IP

UniProt Q9QR71, sequence (Q9QR71 whole entry): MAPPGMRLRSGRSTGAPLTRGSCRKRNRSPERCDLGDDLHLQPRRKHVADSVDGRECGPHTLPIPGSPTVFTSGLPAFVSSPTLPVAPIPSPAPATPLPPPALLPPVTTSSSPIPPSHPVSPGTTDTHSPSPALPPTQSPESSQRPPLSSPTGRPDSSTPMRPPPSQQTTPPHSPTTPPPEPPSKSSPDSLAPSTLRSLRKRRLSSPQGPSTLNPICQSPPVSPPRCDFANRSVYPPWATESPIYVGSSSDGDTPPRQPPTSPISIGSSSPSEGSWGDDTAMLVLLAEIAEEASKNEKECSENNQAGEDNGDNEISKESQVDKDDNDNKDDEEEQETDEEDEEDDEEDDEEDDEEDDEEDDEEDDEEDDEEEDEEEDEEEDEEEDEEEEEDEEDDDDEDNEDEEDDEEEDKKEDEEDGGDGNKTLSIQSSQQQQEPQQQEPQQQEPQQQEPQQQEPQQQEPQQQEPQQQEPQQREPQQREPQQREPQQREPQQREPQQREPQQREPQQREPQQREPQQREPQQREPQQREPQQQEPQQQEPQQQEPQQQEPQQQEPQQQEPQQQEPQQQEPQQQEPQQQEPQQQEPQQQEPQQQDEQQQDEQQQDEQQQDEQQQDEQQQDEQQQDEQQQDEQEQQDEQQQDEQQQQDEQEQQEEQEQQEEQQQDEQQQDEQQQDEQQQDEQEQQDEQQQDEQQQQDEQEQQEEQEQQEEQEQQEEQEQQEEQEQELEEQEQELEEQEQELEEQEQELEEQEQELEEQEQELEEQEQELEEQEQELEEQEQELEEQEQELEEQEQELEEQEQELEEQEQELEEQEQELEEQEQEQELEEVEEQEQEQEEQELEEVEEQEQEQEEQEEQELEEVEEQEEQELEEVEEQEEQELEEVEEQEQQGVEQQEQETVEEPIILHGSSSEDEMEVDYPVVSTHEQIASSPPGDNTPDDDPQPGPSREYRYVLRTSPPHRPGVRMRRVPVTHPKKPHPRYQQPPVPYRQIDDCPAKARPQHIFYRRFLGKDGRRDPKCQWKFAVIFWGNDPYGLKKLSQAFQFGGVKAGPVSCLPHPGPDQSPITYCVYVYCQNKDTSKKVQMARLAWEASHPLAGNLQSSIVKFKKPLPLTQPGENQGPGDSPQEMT

Substance “endogenous histone H1 of human cells (from UniProt P16403 1-213) (natural protein)” has a relative density of the co-precipitated band (input set at 10%) [1] of 10% and a relative density of the co-precipitated band (input set at 10%) [2] of 30%.
